For orientation: stoichiometry N means a count of units in the complex or per binding partner.

For experiment [1], the target named is PF-D-Trimer (pre-fusion trimerized SARS-CoV-2 Delta spike protein ectodomain fused to the Trimer Domain) (SARS-CoV-2) (UniProt P0DTC2). Put plainly: SEC-MALS. On the technique in general: In gel filtration, larger molecules generally elute earlier.
Experiment [2] has the same target. Put plainly: reducing and non-reducing SDS-PAGE.
Experiment [3] has as its target PF-W-Trimer (pre-fusion trimerized SARS-CoV-2 WA1 spike protein ectodomain fused to the Trimer Domain) (SARS-CoV-2) (UniProt P0DTC2). Put plainly: SEC-MALS.
For experiment [4] the target is unchanged. The experiment can be described thus: reducing and non-reducing SDS-PAGE.

Take “PF-D-Trimer (pre-fusion trimerized SARS-CoV-2 Delta spike protein ectodomain fused to the Trimer Domain) (from UniProt P0DTC2 14-1213)”: the stoichiometry N in experiment [1] and in experiment [2] was 3 in each case.
In the case of “PF-W-Trimer (pre-fusion trimerized SARS-CoV-2 WA1 spike protein ectodomain fused to the Trimer Domain) (from UniProt P0DTC2 14-1213)”, the stoichiometry N in experiment [3] and in experiment [4] was 3 in each case.

The record behind these values is article PMC10015519.
